According to patent US6083914:

Key:
[1] = biological target: platelets (human, fresh washed); experiment: competition: soluble peptide against divalent cation-independent adhesion of platelets to coated 45 kDa
[2] = biological target: platelets (human, fresh washed); experiment: competition: 300 uM soluble peptide against platelet adhesion to coated FN in the presence of Ca+2

Binder	ED50 [1] [µM]	percent reduction of platelet adhesion to FN [2] [%]	fold reduction of apparent affinity against FN312-326 [1] [fold]
TAVTQTYGGNSNGEP [FN312-326]	68	50	–
TAVTQTY [FN312-318]	> 2000	–	–
TAVTQTYGGNSN [FN312-323]	712	–	10
QTYGGNSNGEPSVLPFTY [FN316-333]	> 2000	–	–
